For eight molecules, Kd results are on record in patent publication US20190225698A1 (published 2019).

The target of assay [1] is T1, murine CD27-FcHis fusion protein (murine, UniProt P41272 24-182).
T1 chain: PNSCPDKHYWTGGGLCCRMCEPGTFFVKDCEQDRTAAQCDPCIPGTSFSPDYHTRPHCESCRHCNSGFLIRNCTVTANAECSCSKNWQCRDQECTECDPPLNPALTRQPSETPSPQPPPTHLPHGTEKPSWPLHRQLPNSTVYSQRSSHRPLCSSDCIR
The assay is described as follows: SPR. Background: In SPR one partner is held on a chip, and binding of the other changes the refractive index at the surface.

For assay [2], the target named is T2, rhesus monkey CD27-Fc protein (rhesus monkey).
T2 chain: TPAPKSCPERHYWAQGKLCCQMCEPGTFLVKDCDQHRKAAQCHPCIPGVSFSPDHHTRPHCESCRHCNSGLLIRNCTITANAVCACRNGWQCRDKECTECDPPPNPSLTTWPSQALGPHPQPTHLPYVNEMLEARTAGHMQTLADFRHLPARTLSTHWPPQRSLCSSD
The assay is described as follows: BLI. On the technique in general: Biolayer interferometry detects binding as a change in optical thickness at a sensor tip.

The target in the next assay is human CD27-His. The assay is described as follows: SPR.
The target in assay [3] is T3, human CD27-HisFc fusion protein (human, UniProt P26842 20-192).
T3 chain: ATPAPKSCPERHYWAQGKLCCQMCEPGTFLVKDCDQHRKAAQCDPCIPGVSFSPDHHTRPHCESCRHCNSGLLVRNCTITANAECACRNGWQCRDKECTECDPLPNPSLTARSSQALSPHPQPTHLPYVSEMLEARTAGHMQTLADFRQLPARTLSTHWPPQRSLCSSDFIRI
The assay is described as follows: BLI.

Assay [4] deals with T4, murine CD27 expressed on the cell surface of transfected HEK293 cells (murine, UniProt P41272 24-250).
T4 chain: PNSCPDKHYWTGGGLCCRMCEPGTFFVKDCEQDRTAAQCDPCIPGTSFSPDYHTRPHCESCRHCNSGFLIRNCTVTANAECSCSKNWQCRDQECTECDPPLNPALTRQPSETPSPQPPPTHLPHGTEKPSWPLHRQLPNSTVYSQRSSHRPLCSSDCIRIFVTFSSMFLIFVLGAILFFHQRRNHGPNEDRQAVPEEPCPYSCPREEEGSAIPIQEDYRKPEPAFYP
Kind of assay: flow cytometry. Background: A flow cytometer gives signals particle by particle.

For assay [5], the target named is T5, human CD27 expressed on the cell surface of transfected HEK293 cells (human, UniProt P26842 20-260). The assay is described as follows: flow cytometry.
Assay [6] addresses T4, murine CD27 expressed on the cell …. Kind of assay: flow cytometry.
In assay [7] the target is T5, human CD27 expressed on the cell …. The assay is described as follows: flow cytometry. This is another data set of the same source.

Substitutions are numbered along the chain they refer to. Read-outs that look alike come from different tables or passages of the source. Where only a bound is given, the exact number is not on record here.

B1: anti-CD27 antibody mAb077 (IgG1 form) (antibody, V domains shown)
VH: EVQLVESGGGLVQPGGSLRLSCAASGFTFSGYGIHWVRQAPGKGLEWIGWINPNRGSTKYAQKFQGRVTISRDNSKNTLYLQLNSLRAEDTAVYYCARDPGYTWYFDVWGQGTLVTVSS
VL: DIQLTQSPSSLSASVGDRVTITCRASQDISSDLAWYQQKPGKAPKLLIYAASTLQSGVPSRFSGSGSGTDFTLTISSLQPEDFATYYCQQRDAWPPTFGQGTKVEIK
Consider B1, for which the Kd (as a rule, the free concentration of one partner at which half of the binding sites on the other are occupied at equilibrium, for simple one-to-one binding) amounted to 0.0304 nM in assay [1] and 0.562 nM in assay [2].

B2: mAb077-IgG (antibody, V domains shown)
VH: B1 VH
VL: B1 VL
In the assay with human CD27-His, B2 gave a Kd of 0.137 nM.

B3: mAb076-IgG (antibody, V domains shown)
VH: B1 VH with G31D, K59N, P100Y
VL: B1 VL with D32V, T53S, P96L
The molecule B3 returned a Kd in the assay with human CD27-His of 0.332 nM.

B4: mAb077 antibody Fab fragment with C-terminal histidine tag (Fab, V domains shown)
VH: B1 VH
VL: B1 VL
Regarding B4, the Kd in assay [3] stood at 4.08 nM.

B5: mAb076 antibody Fab fragment with C-terminal histidine tag (Fab, V domains shown)
VH: B1 VH with G31D, K59N, P100Y
VL: B1 VL with D32V, T53S, P96L
In assay [3], B5 gave a Kd of 1.61 nM.

B6: anti-CD27 antibody mAb076 (IgG1 form) (antibody, V domains shown)
VH: B1 VH with G31D, K59N, P100Y
VL: B1 VL with D32V, T53S, P96L
In the case of B6, the Kd was 0.0754 nM in assay [1], under 0.001 nM in assay [2], 0.3 nM in assay [4] and 0.16 nM in assay [5].

B7: 1F5-IgG (antibody, V domains shown)
VH: QVQLVESGGGVVQPGRSLRLSCAASGFTFSSYDMHWVRQAPGKGLEWVAVIWYDGSNKYYADSVKGRFTISRDNSKNTLYLQMNSLRAEDTAVYYCARGSGNWGFFDYWGQGTLVTVSS
VL: DIQMTQSPSSLSASVGDRVTITCRASQGISRWLAWYQQKPEKAPKSLIYAASSLQSGVPSRFSGSGSGTDFTLTISSLQPEDFATYYCQQYNTYPRTFGQGTKVEIK
Take B7: the Kd with human CD27-His stood at 1.39 nM.

B8: reference antibody 1F5 (antibody, V domains shown)
VH: B7 VH
VL: B7 VL
Regarding B8, the Kd turned out to be 2.13 nM in assay [2], 31 nM in assay [6] and 0.56 nM in assay [7].
